Reference: patent publication US20260234236A1 (INTERVET, published 2026)

T1: Canine IL-4 with C-terminal Avi-HIS tag (canine, biotin label when loaded on SA biosensors (Example 4); site not stated)
T1 construct: also called cIL-4; biotinylated avitag-cIL-4
T1 chain: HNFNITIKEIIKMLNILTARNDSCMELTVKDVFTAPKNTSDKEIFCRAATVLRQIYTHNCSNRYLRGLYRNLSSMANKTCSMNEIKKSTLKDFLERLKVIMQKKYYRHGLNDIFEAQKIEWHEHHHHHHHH

T2: Canine IL-13 with C-terminal Avi-HIS tag (canine, biotin label when loaded on SA biosensors (Example 4); site not stated)
T2 construct: also called cIL-13; biotinylated avitag-cIL13
T2 chain: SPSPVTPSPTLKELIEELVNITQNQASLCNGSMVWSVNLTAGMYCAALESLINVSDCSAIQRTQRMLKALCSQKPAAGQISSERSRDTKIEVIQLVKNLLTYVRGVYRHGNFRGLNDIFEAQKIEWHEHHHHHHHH

B1: IL4 P3-1 A6 scFv (scFv)
scFv: QPVLTQPPSVSAALGQRVTISCNTNIGSPYDVQWYQQLPGKSPKTIIYGNSNRPSGVPVRFSGSKSGSTATLTIAGIQAEDEADYYCQSYDDNVDGYVFGSGTQLTVLGGGSSRSSSSGGGGSGGGGEVPLVESGGDLVKPGGSLRLSCVASGFTFHNYDLSWIRQLPGGGLQWVADIDKSGLTFYADAVKGRFTISRDNAKNTLYLQMNSLRAEDTAVYYCATWPLGSWYTETFEYWGQGTLVTVSSASTTAPSVTSGQAGQ
notes: scFv purified from E. coli periplasm on Ni-NTA
B2: IL4 P4A-1 F10 scFv (scFv)
scFv: QTVVTQEPSLSVSPGGTVTLTCGLSSGSVSTGNYPGWYQQTQGRAPRSIIYDTNSRPSGVPDRFSGSISGNKAVLTITGAQPEDEADYYCSLYTGIAYTDVVFGGGTHLTVLGGGSSRSSSSGGGGSGGGGEVQLVQSGGDLVKPAGSLRLSCVASGFTFNSYAMSWVRQAPGKGLQWVAGINSGGSTTTYADAVKGRFTISRDNAKNTLYLQMNSLRAEDTAVYYCAKDQNSYYPSDTFEYWGQGTLVTVSSESPSPPNLTSGQAGQ
notes: as for B1
B3: IL4 P4A-1 E10 scFv (scFv)
scFv: QSVLNQPPSVSAALGQRVTVSCTGTDTNIGSGYDVQWYQQVPGKSPTPIIYGNTNRPSGVPERFSGSKSGNTATLTITGIQAEDEADYYCQSFDDNVDGYVFGSGTQLTILGGGSSRSSSSGGGGSGGGGEVPLVESGGDLVKPGGSLRLSCVASGFTFSDYHMSWVRQAPGKGLQWVADISSSGSTYYADAVKGRFTISRDNAKNTLYLQMNSLRAEDTAVYYCARQWGEFDYWGQGTLVTVSSESPSPPNLTSGQAGQ
notes: as for B1
B4: IL4 P3-1 B9 scFv (scFv)
scFv: QAVLTQPASVSAALGQRVTISCTGTATNVGGGYDVQWYQQFPGRPPKTIIYGNYNRPSGVPDRFSASTSGTTATLTITGIQVADEADYYCQSFDTTFNGHVFGAGTQLTILGGGSSRSSSSGGGGSGGGGELQLVELGGDLVKPGGSLRLSCVASGFTFSSYGMSWVRQSPGKGLQWVADISSSGSTYYADAVKGRFTISRDNAKSTLYLQMNSLRAEDTAVYYCAKAGYGSYYDFGMDYWGHGTSVFVSSESPSPPNLTSGQAGQ
notes: as for B1
B5: IL4 P4-1 G3 scFv (scFv)
scFv: QSVLNQLPSLSMNMGETATFTCEGDNIGHKYVNWYQQKPGQAPVLTIYEDNKRPSGIPERFSGSNSGNTATLTISGARAEDEADYYCESEVSTGIVFGGGTHLTVLGGGSSRSSSSGGGGSGGGGEVQLVESGGDLVKPGGSLRLSCVASGFTFSSYDMDWVRQAPGKGLEWLSEISTNGDRTHYADAVKGRFAISRDNAKNTVYLQMNSLRAEDTAIYYCVRDGYEYLAFDYWGQGTLVTVSSASTTAPSVTSGQAGQ
notes: as for B1
B6: IL4 P4-1 A10 scFv (scFv)
scFv: QSVLNQLPSVSGSLGQKVTIRCSGNTDNIGMVGAAWYRQVPGEAPKLLLYSDGNRPSGVPDRFSGSDSGRSATLTITGLQPEDEADYYCQSLDPTVPGNYLFGSGTQLTILGGGSSRSSSSGGGGSGGGGEVQLVESGGDLVKPGGSLRLSCVASGFTFSDYDMTWVRQAPGKGLQWVADINNGGSSTTYADAVKGRFTISRDNAKNTLYLQMNSLRAEDTAMYYCAKEGDNTWLSFDSWGQGTLVTVSSESPSPPNLTSGQAGQ
notes: as for B1
B7: IL4 P4A-2 G11 scFv (scFv)
scFv: DIVMTQTPLSLSVSPGEPASISCKASQSLLYSDGNTYLYWFRQKPGQSPQRLISLVSNRDAGVPDRFSGSGSGTDFTLRISRVEADDAGVYYCGQGIQDPITFGKGTHLEIKGGSSRSSSSGGGGSGGGGEVPLVESGGDLVKPGGSLRLSCVASGFPFRSYGMNWVRQSPGGGLQWVAGILFDGSATAYADAVRGRFTISRDNAKNTLYLQMNSLRAEDTAVYYCASDDGSYIEAYNWFYYWGQGTLVTVSSASTTAPSVTSGQAGQ
notes: as for B1
B8: IL4 P4A-2 D11 scFv (scFv)
scFv: QAVLTQPPSVSAALGQRVTISCSGSTDNVGTVGASWYQHLPGRAPKLLVYIVGDRPSGVPDRFSGSKSGTSATLTITGLQAEDEADYYCSSWDDSLRGIVFGGGTHLTVLGGGSSRSSSSGGGGSGGGGEEQLVEFGGDLVKPGESLRLSCVASGFTFNKYDMSWVRQAPGKGLQWVATVADDESFAYYTDSVKGRFTISRDNAKNTLYLQMNSLRAEDTAMYYCVGKTGSYWDIDFDLWGPGTLVTISSASTTAPSVTSGQAGQ
notes: as for B1
B9: IL4 P3-1 B10 scFv (scFv)
scFv: QSVLTQPTSVSAALGQRVTISCTGSNANIGSVYDVQWYQQLPGKSPKTIIYGNTHRPSGVPVRFSGSKSGSTATLTITGIQAEDEADYYCQSYDATLHYVFGSGTQLTVLGGGSSRSSSSGGGGSGGGGEVQLVESGGDLVKPGGSLRLSCVASGFTFSNYDMSWVRQAPGKGLQWVSTISYDGNNTYYSDAVKGRFTISRDNARNTLYLQMNSLRAEDTAVYYCAKEFDIPWDNFDYWGQGTLVTVSSASTTAPSVTSGQAGQ
notes: as for B1
B10: IL4 P3-1 D7 scFv (scFv)
scFv: QSMLTQPASVSGSLGQRVAISCSGSTNNIGIFGATWYQHLPGKAPKFLLYSDGNRPSGVPDRFSGSDSGNSVTLMITALQAEDEADYYCQSFDTTLGAYVFGSGTQLTILGGGSSRSSSSGGGGSGGGGEVQLVQSGGDLVKPGGSLRLSCVASGFAFNGYDMDWVRLAPGKGLQWLSEISSSGSPTYYADAVEGRFTISRDNAKNTLYLQMDSLRAEDTAVYYCARAGEYTYGYEGYYFDYWGQGTLVTVSSASTTAPSVTSGQAGQ
notes: as for B1
B11: IL4 P3-1 C4 5LC scFv (scFv)
scFv: QAVLNQPASVSGSLGQRVTISCSGSTNNIGVVGASWYQQFPGKAPKLLVYSDGDRPSGVPDRFSGSNSGYSDTLTITGLQAEDEADYYCQSFDTTLNAYVFGSGTQLTVLGGGSSRSSSSGGGGSGGGGEVPLVESGGDLVKPGGSLRISCVASGITFNNDDMGWVRQAPGKGLQWLAEISSSGTSTYYADAVKGRFTISRDNAKNTVYLQMNSLKAEDTGVYYCVGEDGYMALGFWGQGTLVTVSSASTTAPSVTSGQAGQ
B12: IL4 P4A-1 A4 scFv (scFv)
scFv: SYVLSQPPSVSVTPSETAHITCGGNNIGSKYVQWIRQSAGQAPVTIIYGNTNRPTGIPERFSGANSGNTATLTISGVLAEDEADYYCQVGDTDTTVFGGGTHLTVLGGGSSRSSSSGGGGSGGGGEVQLVESGGDLVKPGGSLRLSCVASGFNFSRYSMSWVRQAPEKGLQLVAAVNSGGSRTWYADAVQGRFTVSRDNAKNTLFLEMSSLKLEDTAMYYCAKDLWSTTIAEYDYWGQGTLVTVSSASTTAPSVTSGQAGQ
notes: as for B1
B13: IL13 P4A-2 E11 scFv (scFv)
scFv: QSALTQTASVSGSLGQRVTISCTGATRNVGTVGVTWYQQVPGKAPKLLLFSNGDRPSWVPDRFSGSTSGYSATLIINGVQAEDEAMYHCQSFDTMPDAHYMFGSGTQLTVLGGGSSRSSSSGGGGSGGGGELTLQESGPGLVKPSQTLSLTCVVSGASVTSTNYWNWIRQRPGRGLEWMGYWTGSTKYNPAFQGRISITADTAKNQFSLQLSSMTTEDTAVYYCARSSTWINGFDYWGQGTLVTVSSESPSPPNLTSGQAGQ
notes: as for B1
B14: IL13 P3-05 scFv (scFv)
scFv: SYVLTQPPSVTVPLRQTARISCGGDNIRSKNVHWYQQKPGQAPVLIIYNDSNRPTGIPERFSGSNSGNMATLTIRGALAEDEADYYCQVWANDGYVFGSGTQLTVLGGGSSRSSSSGGGGSGGGGEVQLVESGGDSVRPGGSLRLSCVASGFTFSRYNMGWVRQAPGKGLQWVAWIYDGGSRTSYADAVKGRFTISRDNAKDTLYLQMDDLRVDDTAVYYCARDPSSWGSLFDYWGQGTLVTVSSASTTAPSVTSGQAGQ
notes: as for B1
B15: IL13 P2-1 H5 scFv (scFv)
scFv: QSVLNQPPSVSAALGQRVTISCTGTNTNIGSGYSVQWYQQLPGESPKPIIYGSSNRPSGVPARFSGSKSGSTGTLTITGIQAEDEADYHCQSYDDSLDGHAVFGGGTQLTVLGGGSSRSSSSGGGGSGGGGEVQLVQSGGDLVKPGGSLRLSCVASGFTFSGYDMSWVRQSPGKGLQWVATVWSDGNTIYYADAVKGRFTISRDNAKNTVYLQMNSLRAEDTAMYYCAKSPYCTDDYCPWGDYLDLWGQGTLVTVSSASTTAPSVTSGQAGQ
notes: as for B1

Molecular target: T1, Canine IL-4 with C-terminal Avi-HIS tag
Assay: BLI (OCTET HTX); biotin-cIL-4 on SA biosensors, scFv in solution; 1:1 model
Procedure: (§1) The in vitro binding of anti-canine IL-4 scFv and IL-13 scFv to canine IL-4 and canine IL-13, respectively, was determined by OCTET HTX using SA biosensors and Data Acquisition 12.0 software. First, biotin-labeled antigen (cIL-4 or cIL-13) was loaded onto the pre-rehydrated SA biosensors for 60 seconds (60s) at a concentration of 5 μg/mL. Second, the biosensors were placed into the OCTET Kinetics Buffer (PBS+0.02% Tween20, 0.1% BSA) for the blocking phase for 120s. Third, for the association phase, cIL-4 or cIL-13 antigen loaded biosensors were placed into 2-fold serial dilutions from 500 nM down to 7.8 nM of anti-cIL-4 or anti-cIL-13 scFvs, respectively, in OCTET Kinetics Buffer for 60s. The last well was buffer alone and that sensor was used for reference sensor subtraction. Finally, the biosensors were placed into OCTET Kinetics Buffer for the dissociation phase for 300s. The analysis was performed using Data Analysis 12.0 software and curves were fitted using a 1:1 binding model.

Kd	koff	kon	Binder
1.24 nM	0.000272 s⁻¹	219000 M⁻¹ s⁻¹	B1
12.7 nM	0.00396 s⁻¹	311000 M⁻¹ s⁻¹	B2
10.3 nM	0.00173 s⁻¹	194000 M⁻¹ s⁻¹	B3
4.5 nM	0.00108 s⁻¹	241000 M⁻¹ s⁻¹	B4
3.94 nM	0.00247 s⁻¹	594000 M⁻¹ s⁻¹	B5
9.92 nM	0.011 s⁻¹	954000 M⁻¹ s⁻¹	B6
8.5 nM	0.00117 s⁻¹	137000 M⁻¹ s⁻¹	B7
4.38 nM	0.00775 s⁻¹	1.52e+06 M⁻¹ s⁻¹	B8
4.57 nM	0.00522 s⁻¹	1.14e+06 M⁻¹ s⁻¹	B9
17.5 nM	0.00729 s⁻¹	391000 M⁻¹ s⁻¹	B10
4.13 nM	0.000547 s⁻¹	132000 M⁻¹ s⁻¹	B11
52 nM	0.0373 s⁻¹	704000 M⁻¹ s⁻¹	B12

Molecular target: T2, Canine IL-13 with C-terminal Avi-HIS tag
Assay: BLI (OCTET HTX); biotin-cIL-13 on SA biosensors, scFv in solution; 1:1 model
Procedure: as §1

Kd	koff	kon	Binder
26.8 nM	0.00466 s⁻¹	174000 M⁻¹ s⁻¹	B13
59.7 nM	0.00487 s⁻¹	176000 M⁻¹ s⁻¹	B14
9.09 nM	0.00291 s⁻¹	321000 M⁻¹ s⁻¹	B15
